We go through 125 sequences from the supplement of paper PMC9112550, “Optimization of the antimicrobial peptide Bac7 by deep mutational scanning” (BMC Biology, 2022).

The data set concerns Escherichia coli TOP10. The data set is described as follows: shrunken log2 fold change of peptide-encoding DNA abundance (4.5 h post-induction vs induction); higher = less antimicrobial activity (less host growth inhibition). As to conditions: time post-induction: 4.5 h; library: site-saturation at positions 5, 18, 19, 20.
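Also: peptides expressed intracellularly from a pBAD plasmid library in pooled LB shake-flask culture, induced with 0.3% L-arabinose, DNA abundance read by NGS, three biological replicates, DESeq2 with apeglm shrinkage.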

Take RRIRVRPPRLPRPRPRPMRPPRP: the “shrunken log2 fold change” value was found to be 0.544.
As to RRIRHRPPRLPRPRPRPHPGPRP, the “shrunken log2 fold change” value was -0.0998.
In the case of RRIRLRPPRLPRPRPRPFCKPRP it was -0.101.
The same measure for RRIRDRPPRLPRPRPRPALAPRP: 1.32; for RRIRRRPPRLPRPRPRPAMCPRP: 0.319; for RRIRARPPRLPRPRPRPGAGPRP: 0.767.
In the case of RRIRHRPPRLPRPRPRPLMGPRP it was 0.11.
Regarding RRIRPRPPRLPRPRPRPQDDPRP, the “shrunken log2 fold change” value is -0.367.
Regarding RRIRHRPPRLPRPRPRPNLWPRP, the “shrunken log2 fold change” value was found to be 0.173.
In the case of RRIRDRPPRLPRPRPRPMRNPRP it was 0.416.
In the case of RRIRSRPPRLPRPRPRPWNPPRP it was -0.00281; in that of RRIRLRPPRLPRPRPRPMERPRP, -0.00192; in that of RRIRARPPRLPRPRPRPYWRPRP, -0.096.
For RRIRWRPPRLPRPRPRPHDYPRP, the “shrunken log2 fold change” value was 0.0166.
Consider RRIRHRPPRLPRPRPRPRFCPRP, for which the “shrunken log2 fold change” value came out at 0.0432.
Consider RRIRLRPPRLPRPRPRPTSMPRP, for which the “shrunken log2 fold change” value was -0.154.
In the case of RRIRKRPPRLPRPRPRPGSYPRP it was -0.00588; in that of RRIRHRPPRLPRPRPRPQVAPRP, 0.0753; in that of RRIRDRPPRLPRPRPRPRPRPRP, 0.983.
In the case of RRIRMRPPRLPRPRPRPPRHPRP it was 0.955; in that of RRIRWRPPRLPRPRPRPLSHPRP, 0.000856; in that of RRIRNRPPRLPRPRPRPKQWPRP, 0.217.
For the sequence RRIRHRPPRLPRPRPRPARQPRP, the “shrunken log2 fold change” value came to 0.14.
For RRIRVRPPRLPRPRPRPREAPRP, the “shrunken log2 fold change” value is 0.0545.
In the case of RRIRIRPPRLPRPRPRPYCLPRP it was -0.259.
In the case of RRIRHRPPRLPRPRPRPKGWPRP it was 0.103; in that of RRIRKRPPRLPRPRPRPTQMPRP, 0.8; in that of RRIRKRPPRLPRPRPRPWARPRP, 0.704.
As for RRIRQRPPRLPRPRPRPGEGPRP, the “shrunken log2 fold change” value was 0.00168.
On to RRIRHRPPRLPRPRPRPFWAPRP, for which the “shrunken log2 fold change” value stood at 0.245.
As to RRIRKRPPRLPRPRPRPSHAPRP, the “shrunken log2 fold change” value is 0.155.
Turning to RRIRDRPPRLPRPRPRPPWGPRP, the “shrunken log2 fold change” value was 0.344.
Regarding RRIRFRPPRLPRPRPRPIPHPRP, the “shrunken log2 fold change” value is -0.31.
As to RRIRVRPPRLPRPRPRPPMAPRP, the “shrunken log2 fold change” value turned out to be 0.228.
The same measure for RRIRWRPPRLPRPRPRPNYVPRP: -0.128; for RRIRPRPPRLPRPRPRPLNVPRP: -0.448.
In the case of RRIRVRPPRLPRPRPRPKNHPRP it was -0.18; in that of RRIRYRPPRLPRPRPRPMMHPRP, -0.626; in that of RRIRQRPPRLPRPRPRPERKPRP, 0.0453.
Turning to RRIRYRPPRLPRPRPRPDDTPRP, the “shrunken log2 fold change” value is -0.876.
The same measure for RRIRMRPPRLPRPRPRPDCKPRP: -0.0414; for RRIRYRPPRLPRPRPRPSIAPRP: -0.216; for RRIRRRPPRLPRPRPRPNGKPRP: 0.02.
Take RRIRIRPPRLPRPRPRPSHPPRP: the “shrunken log2 fold change” value was -0.245.
Regarding RRIRHRPPRLPRPRPRPGFSPRP, the “shrunken log2 fold change” value was -0.236.
In the case of RRIRIRPPRLPRPRPRPMIVPRP, the “shrunken log2 fold change” value was -0.0322.
For RRIRFRPPRLPRPRPRPRKNPRP, the “shrunken log2 fold change” value came out at 0.266.
The same measure for RRIRVRPPRLPRPRPRPIARPRP: 0.0436.
RRIRERPPRLPRPRPRPAIGPRP: the “shrunken log2 fold change” value came out at 0.0473.
On to RRIRCRPPRLPRPRPRPHGVPRP, for which the “shrunken log2 fold change” value came to 0.015.
For RRIRARPPRLPRPRPRPDKDPRP, the “shrunken log2 fold change” value is 0.083.
The same measure for RRIRGRPPRLPRPRPRPDKYPRP: -0.136; for RRIRHRPPRLPRPRPRPLLIPRP: -0.516.
The same measure for RRIRYRPPRLPRPRPRPGIEPRP: -0.276; for RRIRLRPPRLPRPRPRPCQAPRP: 0.0641.
In the case of RRIRYRPPRLPRPRPRPLIAPRP it was -0.668.
Consider RRIRQRPPRLPRPRPRPGYMPRP, for which the “shrunken log2 fold change” value is -0.131.
As for RRIRNRPPRLPRPRPRPIHVPRP, the “shrunken log2 fold change” value is -0.224.
For RRIRDRPPRLPRPRPRPCSNPRP, the “shrunken log2 fold change” value came to 0.0176.
In the case of RRIRARPPRLPRPRPRPAAYPRP it was 0.412; in that of RRIRFRPPRLPRPRPRPIFMPRP, -0.314; in that of RRIRERPPRLPRPRPRPPWKPRP, 0.0356.
Turning to RRIRQRPPRLPRPRPRPIINPRP, the “shrunken log2 fold change” value was -0.235.
Turning to RRIRCRPPRLPRPRPRPGKDPRP, the “shrunken log2 fold change” value came out at 0.124.
With RRIRARPPRLPRPRPRPLMIPRP, the “shrunken log2 fold change” value was -0.138.
In the case of RRIRGRPPRLPRPRPRPTEDPRP it was 1.2; in that of RRIRMRPPRLPRPRPRPPNFPRP, 0.35; in that of RRIRNRPPRLPRPRPRPLAQPRP, 0.0157.
In the case of RRIRHRPPRLPRPRPRPYDSPRP it was -0.0275; in that of RRIRCRPPRLPRPRPRPKLAPRP, 0.551; in that of RRIRVRPPRLPRPRPRPRQPPRP, 0.284.
As for RRIRCRPPRLPRPRPRPVQWPRP, the “shrunken log2 fold change” value was determined as 0.116.
Consider RRIRKRPPRLPRPRPRPVTCPRP, for which the “shrunken log2 fold change” value was -0.0146.
With RRIRARPPRLPRPRPRPPKIPRP, the “shrunken log2 fold change” value is 0.327.
The same measure for RRIRGRPPRLPRPRPRPKCDPRP: 0.812.
The same measure for RRIRKRPPRLPRPRPRPMPTPRP: 0.0822.
In the case of RRIRHRPPRLPRPRPRPAPVPRP, the “shrunken log2 fold change” value is 0.466.
Turning to RRIRVRPPRLPRPRPRPGTDPRP, the “shrunken log2 fold change” value is -0.117.
In the case of RRIRFRPPRLPRPRPRPCLTPRP it was -0.134.
On to RRIRFRPPRLPRPRPRPLPQPRP, for which the “shrunken log2 fold change” value amounted to 1.15.
The same measure for RRIRTRPPRLPRPRPRPVMSPRP: -0.123.
The same measure for RRIRKRPPRLPRPRPRPVKHPRP: -0.0571; for RRIRRRPPRLPRPRPRPWGLPRP: -0.222.
Turning to RRIRTRPPRLPRPRPRPMVLPRP, the “shrunken log2 fold change” value is -0.0596.
As for RRIRVRPPRLPRPRPRPHGLPRP, the “shrunken log2 fold change” value is 0.0861.
The same measure for RRIRARPPRLPRPRPRPDREPRP: -0.0167.
In the case of RRIRHRPPRLPRPRPRPFSHPRP it was -0.254.
For RRIRGRPPRLPRPRPRPKNVPRP, the “shrunken log2 fold change” value amounted to 0.0302.
In the case of RRIRKRPPRLPRPRPRPGCIPRP it was 0.424; in that of RRIRERPPRLPRPRPRPGKHPRP, -0.324.
As to RRIRFRPPRLPRPRPRPPIFPRP, the “shrunken log2 fold change” value was -0.0711.
Regarding RRIRRRPPRLPRPRPRPVWEPRP, the “shrunken log2 fold change” value worked out at 0.00461.
The same measure for RRIRGRPPRLPRPRPRPDHMPRP: 0.0349; for RRIRTRPPRLPRPRPRPHGGPRP: 0.384; for RRIRHRPPRLPRPRPRPEGWPRP: 0.695.
In the case of RRIRCRPPRLPRPRPRPMWQPRP it was 0.183.
The same measure for RRIRWRPPRLPRPRPRPKWFPRP: 0.257; for RRIRMRPPRLPRPRPRPSRGPRP: 0.732; for RRIRCRPPRLPRPRPRPLSMPRP: -0.207.
Consider RRIRDRPPRLPRPRPRPWHYPRP, for which the “shrunken log2 fold change” value was -0.225.
In the case of RRIRMRPPRLPRPRPRPGFCPRP it was 0.442.
As for RRIRRRPPRLPRPRPRPPFEPRP, the “shrunken log2 fold change” value was found to be 0.61.
In the case of RRIRCRPPRLPRPRPRPDFEPRP it was -0.0276; in that of RRIRYRPPRLPRPRPRPFTIPRP, -0.00992; in that of RRIRWRPPRLPRPRPRPIDFPRP, -3.4e-05.
In the case of RRIRERPPRLPRPRPRPAATPRP it was 0.222; in that of RRIRIRPPRLPRPRPRPDHVPRP, -0.23; in that of RRIRQRPPRLPRPRPRPMCDPRP, 0.00628.
On to RRIRGRPPRLPRPRPRPYAAPRP, for which the “shrunken log2 fold change” value was determined as 0.859.
The same measure for RRIRWRPPRLPRPRPRPNDVPRP: -0.0909.
In the case of RRIRHRPPRLPRPRPRPANSPRP it was -0.271; in that of RRIRSRPPRLPRPRPRPQNGPRP, -0.535.
For RRIRSRPPRLPRPRPRPWWRPRP, the “shrunken log2 fold change” value was -0.0239.
The same measure for RRIRFRPPRLPRPRPRPCSKPRP: -0.152; for RRIRKRPPRLPRPRPRPVKLPRP: -0.0408.
In the case of RRIRGRPPRLPRPRPRPPDGPRP it was 1.99; in that of RRIRTRPPRLPRPRPRPHVWPRP, 0.272; in that of RRIRKRPPRLPRPRPRPTWTPRP, 0.0915.
The same measure for RRIRDRPPRLPRPRPRPEDQPRP: 0.0219; for RRIRPRPPRLPRPRPRPIHMPRP: -0.23; for RRIRTRPPRLPRPRPRPMCKPRP: -0.0839.
RRIRQRPPRLPRPRPRPMTAPRP: the “shrunken log2 fold change” value was determined as 0.291.
For the sequence RRIRMRPPRLPRPRPRPPMKPRP, the “shrunken log2 fold change” value was -0.0709.
The same measure for RRIRNRPPRLPRPRPRPVVFPRP: -0.0743; for RRIRPRPPRLPRPRPRPQFRPRP: -0.0113.
